Results from US9815881B2, “Method of inducing labor or treating pre-eclampsia by administering relaxin analogs” (The Board of Trustees of the Leland Stanford Junior …, priority 2009, dated 2017).
Where no end group is shown, it is not given here.

B1: WT INSL3: recombinant wild type human insulin-like 3 (protein)
chain 1: PTPEMREKLCGHHFVRALVRVCGGPRWSTEAHHHHHH
chain 2: AAATNPARYCCLSGCTQQDLLTLCPY
modifications: left off: small tags and cut ends

Tests used:
LGR7 = target: T1, LGR7 (Homo sapiens, UniProt Q9HBX9); experiment: Receptor-activation analysis: cAMP production in LGR7-expressing HEK293T cells; format: cell-based; conditions: for pEC50 on the activation of LGR7: HEK293T cells stably expressing LGR7, mean ± S.E., ND = pEC50 not measurable; for LGR7-activation activity (result in words): LGR7-expressing HEK293T cells
T1 construct: HEK293T cells stably expressing recombinant LGR7 or LGR8; expressed in transfected cells
T1 sequence (Q9HBX9 1-757): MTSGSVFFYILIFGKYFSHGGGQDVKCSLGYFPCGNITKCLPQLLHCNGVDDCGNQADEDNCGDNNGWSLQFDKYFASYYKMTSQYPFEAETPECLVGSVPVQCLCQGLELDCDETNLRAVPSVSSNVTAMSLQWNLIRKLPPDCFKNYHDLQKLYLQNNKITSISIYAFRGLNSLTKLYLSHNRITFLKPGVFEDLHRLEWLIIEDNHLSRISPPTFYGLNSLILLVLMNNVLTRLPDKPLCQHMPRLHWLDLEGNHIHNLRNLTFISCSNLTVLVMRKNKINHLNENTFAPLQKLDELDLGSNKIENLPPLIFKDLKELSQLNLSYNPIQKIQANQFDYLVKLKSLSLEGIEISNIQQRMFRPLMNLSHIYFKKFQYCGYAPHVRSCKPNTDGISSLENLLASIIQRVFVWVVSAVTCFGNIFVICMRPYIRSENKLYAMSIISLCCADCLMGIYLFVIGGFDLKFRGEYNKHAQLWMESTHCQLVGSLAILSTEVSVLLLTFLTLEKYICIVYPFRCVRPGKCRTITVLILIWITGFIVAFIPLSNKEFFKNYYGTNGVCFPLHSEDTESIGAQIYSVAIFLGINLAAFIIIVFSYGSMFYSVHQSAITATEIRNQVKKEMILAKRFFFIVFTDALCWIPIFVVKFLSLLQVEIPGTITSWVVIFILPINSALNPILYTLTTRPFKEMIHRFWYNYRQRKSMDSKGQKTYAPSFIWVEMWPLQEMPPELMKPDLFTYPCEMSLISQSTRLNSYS
Method: (§1) The bioactivity of relaxin family peptides was determined based on the stimulation of adenylate cyclase activity in HEK293T cells stably expressing recombinant LGR7 or LGR8. Stable LGR7- or LGR8-expressing cells were maintained in Dulbecco's modified Eagle's medium/F-12 media supplemented with […] Zeocin (Invitrogen). After seeding at a density of 2×10^5 cells per well in 500 μl of Dulbecco's modified Eagle's medium/F-12 medium containing 0.1% bovine serum albumin in 48-well plates, cells were preincubated at 37° C. for 30 min in the presence of 0.25 mM 3-isobutyl-1-methylxanthine before treatment with increasing concentrations of peptides (from 0 to 100 nM) in quadruplicate. Twelve hours after treatment, the culture was reacted with acetic anhydride/triethylamine, and total cAMP content in cell lysates was measured using a specific cAMP radioimmunoassay. A nontagged human RLN2 peptide was used as a standard to verify the bioactivity of tagged RLN2 peptides.
(§2) Receptor-activation and receptor binding activity curves generated in nonlinear regression analyses (Prism; GraphPad Software, San Diego, Calif.) were evaluated relative to the samples without hormone treatment. In all cases data are reported as the mean±S.E. of assays in triplicate or quadruplicate. Statistically significant responses (p<0.05) were determined for each stimulated response to the average nonspecific response from control samples using analysis of variance and Student's t test.

LGR8 = target: T2, LGR8 (Homo sapiens, UniProt Q8WXD0); experiment: Receptor-activation analysis: cAMP production in LGR8-expressing HEK293T cells; format: cell-based; conditions: for LGR8-activation activity (result in words): LGR8-expressing HEK293T cells
T2 construct: HEK293T cells stably expressing recombinant LGR7 or LGR8; expressed in transfected cells
Method: as §1, §2

T2 sequence (Q8WXD0 whole entry): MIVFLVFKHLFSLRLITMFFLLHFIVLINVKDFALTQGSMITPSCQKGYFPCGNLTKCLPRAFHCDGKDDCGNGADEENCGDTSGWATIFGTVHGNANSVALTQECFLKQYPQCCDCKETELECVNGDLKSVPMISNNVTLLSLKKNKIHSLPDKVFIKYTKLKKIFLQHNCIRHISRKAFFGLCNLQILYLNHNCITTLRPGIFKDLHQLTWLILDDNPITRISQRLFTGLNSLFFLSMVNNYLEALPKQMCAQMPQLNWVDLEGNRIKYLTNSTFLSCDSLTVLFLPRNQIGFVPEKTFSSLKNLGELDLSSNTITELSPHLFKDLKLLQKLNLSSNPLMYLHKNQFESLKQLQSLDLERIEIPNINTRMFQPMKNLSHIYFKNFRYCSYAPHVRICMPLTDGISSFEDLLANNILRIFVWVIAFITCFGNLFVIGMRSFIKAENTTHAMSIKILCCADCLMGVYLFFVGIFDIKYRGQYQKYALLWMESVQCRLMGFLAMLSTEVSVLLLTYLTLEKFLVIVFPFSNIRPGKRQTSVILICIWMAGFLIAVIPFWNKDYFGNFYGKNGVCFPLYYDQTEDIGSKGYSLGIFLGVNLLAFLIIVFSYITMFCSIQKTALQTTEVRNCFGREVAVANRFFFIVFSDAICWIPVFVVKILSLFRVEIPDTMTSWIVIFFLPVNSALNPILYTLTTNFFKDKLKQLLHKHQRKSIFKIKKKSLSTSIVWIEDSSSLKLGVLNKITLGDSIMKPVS

Molecule | pEC50 on the activation of LGR7 (LGR7) | LGR7-activation activity (result in words) (LGR7) | LGR8-activation activity (result in words) (LGR8) | also measured
RLN2 C-18: tagged RLN2 from construct with B and A chains linked by a truncated C-domain of 18 amino acids (chain 1 SWMEEVIKLCGRELVRAQIAICGMSTWSHHHHHH; chain 2 QLYSALANKCCHVGCTKRSLARFC; not fully specified; ends and bridges not checked) | 8.74 ± 0.09 | – | – | –
RLN2 C-28: tagged RLN2 from construct with B and A chains linked by a truncated C-domain of 28 amino acids (chain 1 SWMEEVIKLCGRELVRAQIAICGMSTWSHHHHHH; chain 2 QLYSALANKCCHVGCTKRSLARFC; not fully specified; ends and bridges not checked) | 8.66 ± 0.07 | – | – | –
RLN2 C-104: tagged RLN2 derived from the construct containing a 104-amino acid C domain sequence (chain 1 SWMEEVIKLCGRELVRAQIAICGMSTWSHHHHHH; chain 2 QLYSALANKCCHVGCTKRSLARFC; not fully specified; ends and bridges not checked) | 8.74 ± 0.05 | – | – | –
RLN2 K^A17A: RLN2 mutant with alanine substitution at LysA17 of the A chain (chain 1 SWMEEVIKLCGRELVRAQIAICGMSTWSHHHHHH; chain 2 QLYSALANKCCHVGCTARSLARFC; not fully specified; ends and bridges not checked) | – | high potencies on the activation of both LGR7 and LGR8 | significantly enhanced LGR8-activation activity | LGR8-activation activity (result in words) (LGR8; listed as RLN2 KA17A): high potencies on the activation of both LGR7 and LGR8
RLN2 K^A17D: RLN2 mutant with aspartic acid at the LysA17 position (chain 1 SWMEEVIKLCGRELVRAQIAICGMSTWSHHHHHH; chain 2 QLYSALANKCCHVGCTDRSLARFC; not fully specified; ends and bridges not checked) | – | – | did not exhibit an enhanced LGR8-activation activity | –
RLN2 K^A17G: RLN2 mutant with glycine at the LysA17 position (chain 1 SWMEEVIKLCGRELVRAQIAICGMSTWSHHHHHH; chain 2 QLYSALANKCCHVGCTGRSLARFC; not fully specified; ends and bridges not checked) | – | – | did not exhibit an enhanced LGR8-activation activity | –
RLN2 K^A17Q: RLN2 mutant with glutamine at the LysA17 position (chain 1 SWMEEVIKLCGRELVRAQIAICGMSTWSHHHHHH; chain 2 QLYSALANKCCHVGCTQRSLARFC; not fully specified; ends and bridges not checked) | – | – | did not exhibit an enhanced LGR8-activation activity | –
RLN2 R^B12A: RLN2 mutant with alanine substitution of ArgB12 in the B chain RXXXRXXI motif (chain 1 SWMEEVIKLCGAELVRAQIAICGMSTWSHHHHHH; chain 2 QLYSALANKCCHVGCTKRSLARFC; not fully specified; ends and bridges not checked) | – | abolished the LGR7- and LGR8-activation activities | abolished the LGR7- and LGR8-activation activities | –
RLN2 R^B16A: RLN2 mutant with alanine substitution of ArgB16 in the B chain RXXXRXXI motif (chain 1 SWMEEVIKLCGRELVAAQIAICGMSTWSHHHHHH; chain 2 QLYSALANKCCHVGCTKRSLARFC; not fully specified; ends and bridges not checked) | – | abolished the LGR7- and LGR8-activation activities | abolished the LGR7- and LGR8-activation activities | –
RLN2 T^A16A: RLN2 mutant with alanine substitution at ThrA16 of the A chain (chain 1 SWMEEVIKLCGRELVRAQIAICGMSTWSHHHHHH; chain 2 QLYSALANKCCHVGCAKRSLARFC; not fully specified; ends and bridges not checked) | – | high potencies on the activation of both LGR7 and LGR8 | significantly enhanced LGR8-activation activity | LGR8-activation activity (result in words) (LGR8; listed as RLN2 TA16A): high potencies on the activation of both LGR7 and LGR8
RLN2^A19-20: RLN2 mutant with alanine substitution at the A19-20 positions of the A chain (chain 1 SWMEEVIKLCGRELVRAQIAICGMSTWSHHHHHH; chain 2 QLYSALANKCCHVGCTKRAAARFC; not fully specified; ends and bridges not checked) | – | decreased LGR7-activation activities | – | –
WT RLN2 (His1): recombinant wild type RLN2 with N-terminal Myc tag and His6 tag at the N or C terminus of the B chain (position 1) (chain 1 SWMEEVIKLCGRELVRAQIAICGMSTWS; chain 2 QLYSALANKCCHVGCTKRSLARFC; not fully specified; ends and bridges not checked; also: N-terminal Myc tag) | 8.66 ± 0.09 | – | – | –
WT RLN2 (His2): recombinant wild type RLN2 with N-terminal Myc tag and His6 tag at the N or C terminus of the B chain (position 2) (chain 1 SWMEEVIKLCGRELVRAQIAICGMSTWS; chain 2 QLYSALANKCCHVGCTKRSLARFC; not fully specified; ends and bridges not checked; also: N-terminal Myc tag) | 8.77 ± 0.10 | – | – | –
WT RLN3: recombinant wild type human relaxin 3 [reference compound] | 7.73 ± 0.07 | selectively activated | – | –
B1 | – | – | selectively activated | pEC50 on the activation of LGR8 (LGR8; HEK293T cells stably expressing LGR8, mean ± S.E., ND = pEC50 not measurable): 9.03 ± 0.05
